{"source": "patent US20200216495A1", "about": "(ADRX, published 2020)", "note": "Square brackets hold non-standard residues; d marks the D form. Ends that are not written are not given here. dCit = NC(=O)NCCC[C@@H](N)C(=O)O", "data": [{"target": "Ac-VQIINK-NH2 (SEQ ID NO: 23) (N-terminal acetyl (Ac); C-terminal amide (NH2))", "test": "cell-based or functional assay", "units": {"VQIINK Inhibition IC50": "µm"}, "values": [{"binder": "[dW][dH][dV][dK][dF][dE][dL][dF]", "note": "[whvkfelf]", "VQIINK Inhibition IC50": 2.12}, {"binder": "[dF][dK][dI][dK][dI][dK][dW] (not fully specified; printed as fkikikw)", "note": "[fkikikw]", "VQIINK Inhibition IC50": 2.35}, {"binder": "[dW][dR][dL][dT][dI][dH][dW]", "note": "[wrltihw]", "VQIINK Inhibition IC50": 3.16}, {"binder": "[dL][dR][dI][dR][dI][dH][dY][dH]", "note": "[lririhyh]", "VQIINK Inhibition IC50": 3.34}, {"binder": "[dF][dR][dI][dR][dI][dH][dH][dF]", "note": "[fririhhf]", "VQIINK Inhibition IC50": 2.02}, {"binder": "[dW][dQ][dL][dQ][dV][dR][dW]", "note": "[wqlqvrw]", "VQIINK Inhibition IC50": 2.74}, {"binder": "[dW][dR][dL][dK][dV][dR][dW][dW]", "note": "[wrlkvrww]", "VQIINK Inhibition IC50": 1.97}, {"binder": "[dL][dK][dI][dR][dI][dW][dY][dH]", "note": "[lkiriwyh]", "VQIINK Inhibition IC50": 1.89}, {"binder": "[dL][dK][dI][dR][dI][dH][dY][dA]", "note": "[lkirihya]", "VQIINK Inhibition IC50": 3.83}, {"binder": "[dL][dE][dL][dK][dI][dK][dF][dW]", "note": "[lelkikfw]", "VQIINK Inhibition IC50": 2.78}, {"binder": "[dW][dR][dL][dK][dV][dR][dW]", "note": "[wrlkvrw]", "VQIINK Inhibition IC50": 2.45}, {"binder": "[dW][dR][dL][dK][dV][dR][dW][dF]", "note": "[wrlkvrwf]", "VQIINK Inhibition IC50": 2.53}, {"binder": "[dL][dK][dI][dCit][dI][dH][dY]", "note": "[lkizihy]", "VQIINK Inhibition IC50": 2.13}, {"binder": "[dW][dR][dL][dR][dI][dA][dW]", "note": "[wrlriaw]", "VQIINK Inhibition IC50": 2.86}, {"binder": "[dW][dR][dL][dK][dF][dR][dW]", "note": "[wrlkfrw]", "VQIINK Inhibition IC50": 2.23}, {"binder": "[dW][dR][dL][dQ][dV][dR][dW]", "note": "[wrlqvrw]", "VQIINK Inhibition IC50": 2.12}, {"binder": "[dF][dK][dL][dW][dL][dR][dW][dF]", "note": "[fklwlrwf]", "VQIINK Inhibition IC50": 2.52}, {"binder": "[dL][dR][dI][dE][dI][dE][dW][dH]", "note": "[lrieiewh]", "VQIINK Inhibition IC50": 2.1}, {"binder": "[dF][dK][dL][dK][dI][dK][dW]", "note": "[fklkikw]", "VQIINK Inhibition IC50": 2.66}, {"binder": "[dW][dK][dV][dW][dV][dR]G[dW] (not fully specified (residue 7); printed as wkvwvrgw)", "note": "[wkvwvrgw]", "VQIINK Inhibition IC50": 2.17}, {"binder": "[dW][dA][dL][dK][dV][dR][dW]", "note": "[walkvrw]", "VQIINK Inhibition IC50": 3.32}, {"binder": "[dW][dR][dL][dK][dV][dQ][dW]", "note": "[wrlkvqw]", "VQIINK Inhibition IC50": 2.15}, {"binder": "[dW][dQ][dL][dK][dV][dQ][dW]", "note": "[wqlkvqw]", "VQIINK Inhibition IC50": 2.27}, {"binder": "[dL][dK][dI][dR][dI][dH][dY][dR]", "note": "[lkirihyr]", "VQIINK Inhibition IC50": 3.02}, {"binder": "[dW][dR][dL][dR][dI][dM][dW]", "note": "[wrlrimw]", "VQIINK Inhibition IC50": 2.61}, {"binder": "[dW][dK][dV][dQ][dV][dR][dW]", "note": "[wkvqvrw]", "VQIINK Inhibition IC50": 2.21}, {"binder": "[dL][dK][dI][dR][dI][dH][dY][dH]", "note": "[lkirihyh]", "VQIINK Inhibition IC50": 1.99}, {"binder": "[dF][dH][dI][dR][dL][dE][dW][dH]", "note": "[fhirlewh]", "VQIINK Inhibition IC50": 2.01}, {"binder": "[dL][dK][dI][dA][dI][dH][dY][dH]", "note": "[lkiaihyh]", "VQIINK Inhibition IC50": 2.26}, {"binder": "[dW][dW][dL][dR][dI][dH][dW]", "note": "[wwlrihw]", "VQIINK Inhibition IC50": 2.11}, {"binder": "[dL][dK][dI][dQ][dI][dH][dY]", "note": "[lkiqihy]", "VQIINK Inhibition IC50": 2.82}, {"binder": "[dL][dA][dI][dR][dI][dH][dY][dH]", "note": "[lairihyh]", "VQIINK Inhibition IC50": 1.98}, {"binder": "[dW][dR][dL][dE][dI][dH][dW]", "note": "[wrleihw]", "VQIINK Inhibition IC50": 2.2}, {"binder": "[dL][dK][dI][dR][dI][dH][dY][dE]", "note": "[lkirihye]", "VQIINK Inhibition IC50": 3.39}, {"binder": "[dW][dW][dL][dK][dL][dR][dW][dW]", "note": "[wwlklrww]", "VQIINK Inhibition IC50": 3.79}, {"binder": "[dW][dR][dL][dR][dI][dE][dW]", "note": "[wrlriew]", "VQIINK Inhibition IC50": 1.98}, {"binder": "[dF][dR][dI][dR][dL][dR][dW]", "note": "[frirlrw]", "VQIINK Inhibition IC50": 2.58}, {"binder": "[dF][dK][dL][dK][dL][dR][dW][dF]", "note": "[fklklrwf]", "VQIINK Inhibition IC50": 2.2}, {"binder": "[dW][dN][dL][dK][dV][dN][dW]", "note": "[wnlkvnw]", "VQIINK Inhibition IC50": 3.5}, {"binder": "[dL][dK][dL][dH][dL][dH][dF][dH]", "note": "[lklhlhfh]", "VQIINK Inhibition IC50": 2.87}, {"binder": "[dW][dR][dL][dR][dI][dH][dW]", "note": "[wrlrihw]", "VQIINK Inhibition IC50": 2.23}, {"binder": "[dW][dW][dL][dK][dL][dR][dW]", "note": "[wwlklrw]", "VQIINK Inhibition IC50": 1.99}, {"binder": "[dW][dA][dL][dR][dI][dH][dW]", "note": "[walrihw]", "VQIINK Inhibition IC50": 3.12}, {"binder": "[dW][dE][dL][dR][dI][dH][dW]", "note": "[welrihw]", "VQIINK Inhibition IC50": 3.46}, {"binder": "[dF][dR][dI][dK][dL][dR][dW]", "note": "[friklrw]", "VQIINK Inhibition IC50": 2.49}, {"binder": "[dH][dR][dL][dK][dV][dR][dW][dH]", "note": "[hrlkvrwh]", "VQIINK Inhibition IC50": 1.97}, {"binder": "[dL][dR][dI][dK][dI][dR][dF][dH]", "note": "[lrikirfh]", "VQIINK Inhibition IC50": 2.69}, {"binder": "[dW][dK][dL][dW][dL][dR][dW] (not fully specified; printed as wklwlrw)", "note": "[wklwlrw]", "VQIINK Inhibition IC50": 1.95}, {"binder": "[dL][dK][dI][dK][dI][dH][dY]", "note": "[lkikihy]", "VQIINK Inhibition IC50": 1.96}, {"binder": "[dW][dR][dL][dK][dV][dA][dW]", "note": "[wrlkvaw]", "VQIINK Inhibition IC50": 3.57}, {"binder": "[dW][dR][dL][dK][dV][dR][dW][dH]", "note": "[wrlkvrwh]", "VQIINK Inhibition IC50": 1.92}, {"binder": "[dW][dM][dL][dR][dI][dH][dW]", "note": "[wmlrihw]", "VQIINK Inhibition IC50": 3.34}, {"binder": "[dW][dR][dL][dR][dI][dT][dW]", "note": "[wrlritw]", "VQIINK Inhibition IC50": 2.89}, {"binder": "[dW][dR][dF][dK][dF][dR][dW]", "note": "[wrfkfrw]", "VQIINK Inhibition IC50": 1.95}, {"binder": "[dF][dR][dL][dR][dI][dW][dW][dF]", "note": "[frlriwwf]", "VQIINK Inhibition IC50": 2.29}, {"binder": "[dW][dT][dL][dR][dI][dH][dW]", "note": "[wtlrihw]", "VQIINK Inhibition IC50": 2.82}, {"binder": "[dW][dR][dL][dD][dV][dR][dW]", "note": "[wrldvrw]", "VQIINK Inhibition IC50": 2.42}, {"binder": "[dL][dK][dI][dH][dI][dR][dH][dW]", "note": "[lkihirhw]", "VQIINK Inhibition IC50": 2.38}, {"binder": "[dL][dK][dV][dR][dW][dW][dW][dR]", "note": "[lkvrwwwr]", "VQIINK Inhibition IC50": 3.34}, {"binder": "[dW][dR][dL][dK][dV][dD][dW]", "note": "[wrlkvdw]", "VQIINK Inhibition IC50": 3.21}]}]}
